Tests used:
RSV F protein (DS-Cav1) = assay: Biolayer interferometry, MMP-9 binding to RSV F protein (DS-Cav1); parameters: species or system Respiratory syncytial virus; conditions: BLI, DS-Cav1 immobilized; read-out: dissociation constant (KD), MMP-9 to RSV F
Description: Figure 4. MMP-9 interacts with RSV F protein. (A) MMP-9–F protein interaction analysis. HEK293T cells co-transfected with MMP-9 and RSV F plasmids (48 h) were subjected to co-immunoprecipitation (Co-IP) using anti-F, anti-MMP-9, or IgG control antibodies, followed by immunoblotting with indicated probes. Blots represent three independent experiments. (B) Binding affinity quantification. Biolayer interferometry (BLI) assays using ForteBio Octet measured DS-Cav1 (RSV F prefusion conformation) and MMP-9 interactions. The results represent three biological replicates. (C) Subcellular co-localization. Confocal microscopy of HEp-2 cells transfected with MMP-9 (24 h) ± RSV A2 infection (MOI = 1, 72 hpi). Nuclei (DAPI), MMP-9, and RSV F signals are shown. Scale bar: 20 µm. Images represent three biological replicates. (D) No effect on F protein proteolytic processing. Western blot of RSV F cleavage status in HEK293T cells co-expressing MMP-9 (100–500 ng) and RSV F (500 ng) for 48 h. β-Actin served as loading control. Blots represent three independent experiments. […] They were left out and are not reliably readable. […]
(§1) 271 TGM2) were quantified using a Sartorius Octet R4 system. […]
(§2) 275 equilibration. MMP-9 (MCE) binding was assessed across two concentration ranges: […]
(§3) 281 (Sartorius) at 20 µg/mL. TGM2 binding was evaluated across 0 –100 µM (7 […]

TGM2 = molecular target: T1, TGM2 (Homo sapiens, UniProt P21980); assay: Biolayer interferometry, MMP-9 binding to TGM2; conditions: BLI, purified human proteins, TGM2 immobilized; read-out: dissociation constant (KD), MMP-9 to TGM2
T1 construct: His tag (inferred from capture on anti-penta-HIS biosensors); purchased MCE (MedChemExpress)
T1 sequence (P21980 1-687): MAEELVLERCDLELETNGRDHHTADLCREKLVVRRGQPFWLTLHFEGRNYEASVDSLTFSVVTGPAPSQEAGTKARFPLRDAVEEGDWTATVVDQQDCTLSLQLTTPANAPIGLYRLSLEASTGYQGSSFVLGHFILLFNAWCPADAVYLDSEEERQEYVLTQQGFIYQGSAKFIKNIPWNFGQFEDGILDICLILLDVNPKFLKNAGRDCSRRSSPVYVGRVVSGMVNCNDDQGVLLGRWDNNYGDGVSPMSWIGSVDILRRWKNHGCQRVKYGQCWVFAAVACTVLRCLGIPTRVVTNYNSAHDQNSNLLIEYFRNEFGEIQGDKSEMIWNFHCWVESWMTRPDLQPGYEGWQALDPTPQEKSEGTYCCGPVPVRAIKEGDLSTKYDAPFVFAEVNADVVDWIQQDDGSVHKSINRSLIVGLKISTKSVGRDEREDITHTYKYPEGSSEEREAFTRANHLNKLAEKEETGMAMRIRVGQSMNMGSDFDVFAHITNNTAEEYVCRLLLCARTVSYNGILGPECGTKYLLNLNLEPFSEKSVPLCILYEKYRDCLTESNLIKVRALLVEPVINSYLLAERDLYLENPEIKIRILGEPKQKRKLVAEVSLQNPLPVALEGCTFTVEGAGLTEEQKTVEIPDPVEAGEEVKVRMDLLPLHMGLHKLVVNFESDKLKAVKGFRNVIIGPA
Description: Figure 6. MMP-9 cleaves TGM2 to potentiate RSV infection. (A) MMP-9–TGM2 interaction. […] Blots represent three independent experiments. (D) Infection-enhanced cleavage. MMP-9-dependent TGM2 proteolysis in HEp-2 cells transfected with HA-TGM2 and siMMP-9, followed by RSV A2 infection (MOI = 1, 72 hpi). TGM2 fragment band intensity was quantified by ImageJ software (gray values). Blots represent three independent experiments. (E) Enzymatic validation. MMP-9 proteolytic activity was measured using fluorogenic substrate Mca-PLGL-Dpa-AR-NH2. The results represent three biological replicates. (F) In vitro cleavage assay. Recombinant TGM2 (2 µg) was incubated with APMA-activated MMP-9 (0.2 µg) for 18 h (37°C, pH 7.5). Cleavage products resolved by SDS-PAGE (10%). Arrows indicate proteolytic fragments. The results represent three biological replicates. (G) Functional rescue. Viral titers (FFA) in HEp-2 cells overexpressing MMP-9, TGM2, or cleavage-resistant mutant (TGM2-P375A) post RSV infection (MOI = 1, 72 hpi). mean ± SD, n = 3. (H) Syncytium rescue. Syncytia area quantification in MMP-9/TGM2-modulated cells (ImageJ software). mean ± SD, n = 3. […]
as §1, §2, §3

B1: MMP-9: recombinant matrix metalloproteinase 9 protein used as analyte in BLI (protein)
chain: APRQRQSTLVLFPGDLRTNLTDRQLAEEYLYRYGYTRVAEMRGESKSLGPALLLLQKQLSLPETGELDSATLKAMRTPRCGVPDLGRFQTFEGDLKWHHHNITYWIQNYSEDLPRAVIDDAFARAFALWSAVTPLTFTRVYSRDADIVIQFGVAEHGDGYPFDGKDGLLAHAFPPGPGIQGDAHFDDDELWSLGKGVVVPTRFGNADGAACHFPFIFEGRSYSACTTDGRSDGLPWCSTTANYDTDDRFGFCPSERLYTQDGNADGKPCQFPFIFQGQSYSACTTDGRSDGYRWCATTANYDRDKLFGFCPTRADSTVMGGNSAGELCVFPFTFLGKEYSTCTSEGRGDGRLWCATTSNFDSDKKWGFCPDQGYSLFLVAAHEFGHALGLDHSSVPEALMYPMYRFTEGPPLHKDDVNGIRHLYGPRPEPEPRPPTTTTPQPTAPPTVCPTGPPTVHPSERPTAGPTGPPSAGPTGPPTAGPSTATTVPLSPVDDACNVNIFDAIAEIGNQLYLFKDGKYWRFSEGRGSRPQGPFLIADKWPALPRKLDSVFEERLSKKLFFFSGRQVWVYTGASVLGPRRLDKLGLGADVAQVTGALRSGRGKMLLFSGRRLWRFDVKAQMVDPRSASEVDRMFPGVPLDTHDVFQYREKAYFCQDRFYWRVSSRSELNQVDQVGYVTYDILQCPED
Kd (RSV F protein (DS-Cav1)): 146 nM | Kd (TGM2): 1980 nM
